Paper PMC9482650, “Quantitative fragmentomics allow affinity mapping of interactomes” (Nature Communications, 2022)

B1: AMOTL1, Q8IY63 (peptide)
chain: PDGEMMEVLI
B2: TUBB4B, P68371 (peptide)
chain: FEEEAEEEVA

Each binder was assayed against T1, DLG3_1, Q92796 (assay: holdup assay). Settings: plain residues with an end cap or a label only (N-terminal biotin on a linker: ado-ado).
T1 sequence (Q92796 125-227, limits assumed, looked up): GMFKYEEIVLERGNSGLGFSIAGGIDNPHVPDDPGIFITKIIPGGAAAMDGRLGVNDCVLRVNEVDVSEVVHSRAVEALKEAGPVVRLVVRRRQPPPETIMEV
Set-up: key: below the threshold = too weak to quantify, mostly under pKd 3.1 to 4

**Q.** B1 was tested. Which pKd did it give?
**A.** below the threshold

**Q.** B2 was tested. Which pKd did it give?
**A.** below the threshold

Each binder was assayed against LNX1_1, Q8TBB1 (assay: holdup assay). Settings: plain residues with an end cap or a label only (N-terminal biotin on a linker: ado-ado).
Set-up: key: below the threshold = too weak to quantify, mostly under pKd 3.1 to 4

LNX1_1, Q8TBB1, sequence (Q8TBB1 261-371): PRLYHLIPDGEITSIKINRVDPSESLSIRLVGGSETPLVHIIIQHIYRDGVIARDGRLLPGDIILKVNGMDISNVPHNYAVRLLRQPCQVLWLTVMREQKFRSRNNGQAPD

**Q.** For B1, which pKd is on record?
**A.** below the threshold

**Q.** B2 was tested. Which pKd did it give?
**A.** below the threshold

Each binder was assayed against IL16_3, Q14005 (assay: holdup assay). Settings: plain residues with an end cap or a label only (N-terminal biotin on a linker: ado-ado).
Set-up: key: below the threshold = too weak to quantify, mostly under pKd 3.1 to 4

IL16_3, Q14005, sequence (Q14005 1107-1207): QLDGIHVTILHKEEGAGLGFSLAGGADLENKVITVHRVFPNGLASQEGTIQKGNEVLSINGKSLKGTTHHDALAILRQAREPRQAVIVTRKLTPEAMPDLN

**Q.** Which pKd does the source give for B1 here?
**A.** below the threshold

**Q.** B2 was tested. Which pKd did it give?
**A.** below the threshold

What follows are binders tested against T2, APBA2_1, Q99767 (assay: holdup assay). Settings: plain residues with an end cap or a label only (N-terminal biotin on a linker: ado-ado).
T2 sequence (Q99767 563-664, limits assumed, looked up): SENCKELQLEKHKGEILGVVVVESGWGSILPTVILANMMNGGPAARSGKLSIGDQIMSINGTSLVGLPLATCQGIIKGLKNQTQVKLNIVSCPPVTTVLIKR
Set-up: key: below the threshold = too weak to quantify, mostly under pKd 3.1 to 4

**Q.** B1 was tested. Which pKd did it give?
**A.** below the threshold

**Q.** With B2 as the binder, how does the pKd read?
**A.** below the threshold

These binders were tested against MAST2, Q6P0Q8 (assay: holdup assay). Settings: plain residues with an end cap or a label only (N-terminal biotin on a linker: ado-ado).
Set-up: key: below the threshold = too weak to quantify, mostly under pKd 3.1 to 4

MAST2, Q6P0Q8, sequence (Q6P0Q8 1099-1202): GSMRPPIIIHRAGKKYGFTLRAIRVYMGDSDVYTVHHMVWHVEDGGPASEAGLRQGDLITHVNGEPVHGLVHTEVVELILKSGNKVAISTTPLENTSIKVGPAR

**Q.** B1 was tested. Which pKd did it give?
**A.** 3.73

**Q.** How did the pKd turn out when B2 was run?
**A.** below the threshold

These binders were tested against SCRIB_1, Q14160 (assay: holdup assay). Settings: plain residues with an end cap or a label only (N-terminal biotin on a linker: ado-ado).
Set-up: key: below the threshold = too weak to quantify, mostly under pKd 3.1 to 4

SCRIB_1, Q14160, sequence (Q14160 718-814): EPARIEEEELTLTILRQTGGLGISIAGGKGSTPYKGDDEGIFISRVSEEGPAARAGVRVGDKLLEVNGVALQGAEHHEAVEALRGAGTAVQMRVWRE

**Q.** With B1 as the binder, how does the pKd read?
**A.** below the threshold

**Q.** How did the pKd turn out when B2 was run?
**A.** below the threshold

These binders were tested against FRMPD2_1, Q68DX3 (assay: holdup assay). Settings: plain residues with an end cap or a label only (N-terminal biotin on a linker: ado-ado).
Set-up: key: below the threshold = too weak to quantify, mostly under pKd 3.1 to 4

FRMPD2_1, Q68DX3, sequence (Q68DX3 770-861): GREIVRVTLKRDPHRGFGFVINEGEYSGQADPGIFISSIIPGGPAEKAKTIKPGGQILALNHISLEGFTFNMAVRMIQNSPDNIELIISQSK

**Q.** B1 was tested. Which pKd did it give?
**A.** below the threshold

**Q.** With B2 as the binder, how does the pKd read?
**A.** below the threshold

Each binder was assayed against T3, SNTG2, Q9NY99 (assay: holdup assay). Settings: plain residues with an end cap or a label only (N-terminal biotin on a linker: ado-ado).
T3 sequence (Q9NY99 68-166, limits assumed, looked up): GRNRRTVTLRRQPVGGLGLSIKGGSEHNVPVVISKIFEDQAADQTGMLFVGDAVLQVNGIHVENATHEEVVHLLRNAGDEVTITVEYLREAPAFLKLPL
Set-up: key: below the threshold = too weak to quantify, mostly under pKd 3.1 to 4

**Q.** Which pKd does the source give for B1 here?
**A.** below the threshold

**Q.** B2 was tested. Which pKd did it give?
**A.** below the threshold

These binders were tested against LIMK2, P53671 (assay: holdup assay). Settings: plain residues with an end cap or a label only (N-terminal biotin on a linker: ado-ado).
Set-up: key: below the threshold = too weak to quantify, mostly under pKd 3.1 to 4

LIMK2, P53671, sequence (P53671 143-248): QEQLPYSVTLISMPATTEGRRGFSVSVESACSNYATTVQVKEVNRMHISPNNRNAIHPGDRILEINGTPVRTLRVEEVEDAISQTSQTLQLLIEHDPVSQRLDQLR

**Q.** B1 was tested. Which pKd did it give?
**A.** below the threshold

**Q.** How did the pKd turn out when B2 was run?
**A.** below the threshold

These binders were tested against T4, NHERF3_4, Q5T2W1 (assay: holdup assay). Settings: plain residues with an end cap or a label only (N-terminal biotin on a linker: ado-ado).
T4 sequence (Q5T2W1 373-468, limits assumed, looked up): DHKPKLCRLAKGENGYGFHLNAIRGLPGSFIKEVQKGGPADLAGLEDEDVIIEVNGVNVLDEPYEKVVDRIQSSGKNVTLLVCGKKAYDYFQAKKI
Set-up: key: below the threshold = too weak to quantify, mostly under pKd 3.1 to 4

**Q.** B1 was tested. Which pKd did it give?
**A.** below the threshold

**Q.** For B2, which pKd is on record?
**A.** below the threshold

These binders were tested against SCRIB_2, Q14160 (assay: holdup assay). Settings: plain residues with an end cap or a label only (N-terminal biotin on a linker: ado-ado).
Set-up: key: below the threshold = too weak to quantify, mostly under pKd 3.1 to 4

SCRIB_2, Q14160, sequence (Q14160 857-960): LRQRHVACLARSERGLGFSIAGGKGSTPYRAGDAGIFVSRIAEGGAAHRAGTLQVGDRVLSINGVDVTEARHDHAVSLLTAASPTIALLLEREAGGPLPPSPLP

**Q.** With B1 as the binder, how does the pKd read?
**A.** below the threshold

**Q.** For B2, which pKd is on record?
**A.** below the threshold

Each binder was assayed against T5, DLG3_2, Q92796 (assay: holdup assay). Settings: plain residues with an end cap or a label only (N-terminal biotin on a linker: ado-ado).
T5 sequence (Q92796 221-321, limits assumed, looked up): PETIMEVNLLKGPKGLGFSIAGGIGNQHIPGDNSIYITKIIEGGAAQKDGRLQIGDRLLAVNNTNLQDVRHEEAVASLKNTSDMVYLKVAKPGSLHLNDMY
Set-up: key: below the threshold = too weak to quantify, mostly under pKd 3.1 to 4

**Q.** For B1, which pKd is on record?
**A.** 4.06

**Q.** With B2 as the binder, how does the pKd read?
**A.** 4.01

Each binder was assayed against GRID2IP_2, A4D2P6 (assay: holdup assay). Settings: plain residues with an end cap or a label only (N-terminal biotin on a linker: ado-ado).
Set-up: key: below the threshold = too weak to quantify, mostly under pKd 3.1 to 4

GRID2IP_2, A4D2P6, sequence (A4D2P6 272-370): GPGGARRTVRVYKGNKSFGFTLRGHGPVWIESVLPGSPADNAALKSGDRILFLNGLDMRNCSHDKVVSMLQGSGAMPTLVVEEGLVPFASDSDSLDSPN

**Q.** B1 was tested. Which pKd did it give?
**A.** below the threshold

**Q.** How did the pKd turn out when B2 was run?
**A.** below the threshold

Each binder was assayed against GRIP2_4, Q9C0E4 (assay: holdup assay). Settings: plain residues with an end cap or a label only (N-terminal biotin on a linker: ado-ado).
Set-up: key: below the threshold = too weak to quantify, mostly under pKd 3.1 to 4

GRIP2_4, Q9C0E4, sequence (Q9C0E4 446-548): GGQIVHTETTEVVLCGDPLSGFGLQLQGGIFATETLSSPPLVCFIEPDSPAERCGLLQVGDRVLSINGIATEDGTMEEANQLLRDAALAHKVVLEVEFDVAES

**Q.** B1 was tested. Which pKd did it give?
**A.** below the threshold

**Q.** For B2, which pKd is on record?
**A.** below the threshold

These binders were tested against T6, PARD3B_1, Q8TEW8 (assay: holdup assay). Settings: plain residues with an end cap or a label only (N-terminal biotin on a linker: ado-ado).
T6 sequence (Q8TEW8 196-299, limits assumed, looked up): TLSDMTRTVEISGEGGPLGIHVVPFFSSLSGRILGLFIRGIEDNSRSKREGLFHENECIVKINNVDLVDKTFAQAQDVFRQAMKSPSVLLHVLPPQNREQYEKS
Set-up: key: below the threshold = too weak to quantify, mostly under pKd 3.1 to 4

**Q.** Which pKd does the source give for B1 here?
**A.** 4.95

**Q.** For B2, which pKd is on record?
**A.** 3.98

The binders below were run against TJP1_2, Q07157 (assay: holdup assay). Settings: plain residues with an end cap or a label only (N-terminal biotin on a linker: ado-ado).
Set-up: key: below the threshold = too weak to quantify, mostly under pKd 3.1 to 4

TJP1_2, Q07157, sequence (Q07157 181-274): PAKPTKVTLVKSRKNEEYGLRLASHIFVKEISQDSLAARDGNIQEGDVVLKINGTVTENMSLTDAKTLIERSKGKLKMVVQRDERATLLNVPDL

**Q.** For B1, which pKd is on record?
**A.** below the threshold

**Q.** For B2, which pKd is on record?
**A.** below the threshold

The binders below were run against Inadl_8, Q8NI35 (assay: holdup assay). Settings: plain residues with an end cap or a label only (N-terminal biotin on a linker: ado-ado).
Set-up: key: below the threshold = too weak to quantify, mostly under pKd 3.1 to 4

Inadl_8, Q8NI35, sequence (Q8NI35 1425-1530): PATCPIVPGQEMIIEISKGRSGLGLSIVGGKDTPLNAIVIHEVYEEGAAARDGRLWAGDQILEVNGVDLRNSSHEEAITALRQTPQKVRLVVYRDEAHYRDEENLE

**Q.** For B1, which pKd is on record?
**A.** below the threshold

**Q.** For B2, which pKd is on record?
**A.** below the threshold

Each binder was assayed against T7, SHANK1, Q9Y566 (assay: holdup assay). Settings: plain residues with an end cap or a label only (N-terminal biotin on a linker: ado-ado).
T7 sequence (Q9Y566 658-767, limits assumed, looked up): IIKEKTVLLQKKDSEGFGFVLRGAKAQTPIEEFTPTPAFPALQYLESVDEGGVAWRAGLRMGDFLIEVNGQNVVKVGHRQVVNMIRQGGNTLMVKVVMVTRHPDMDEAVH
Set-up: key: below the threshold = too weak to quantify, mostly under pKd 3.1 to 4

**Q.** With B1 as the binder, how does the pKd read?
**A.** below the threshold

**Q.** With B2 as the binder, how does the pKd read?
**A.** below the threshold

What follows are binders tested against Inadl_6, Q8NI35 (assay: holdup assay). Settings: plain residues with an end cap or a label only (N-terminal biotin on a linker: ado-ado).
Set-up: key: below the threshold = too weak to quantify, mostly under pKd 3.1 to 4

Inadl_6, Q8NI35, sequence (Q8NI35 1058-1167): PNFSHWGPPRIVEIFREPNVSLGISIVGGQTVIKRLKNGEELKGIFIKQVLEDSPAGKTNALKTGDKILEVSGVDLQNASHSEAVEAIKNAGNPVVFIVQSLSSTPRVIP

**Q.** Which pKd does the source give for B1 here?
**A.** below the threshold

**Q.** With B2 as the binder, how does the pKd read?
**A.** below the threshold

What follows are binders tested against LNX1_2, Q8TBB1 (assay: holdup assay). Settings: plain residues with an end cap or a label only (N-terminal biotin on a linker: ado-ado).
Set-up: key: below the threshold = too weak to quantify, mostly under pKd 3.1 to 4

LNX1_2, Q8TBB1, sequence (Q8TBB1 371-470): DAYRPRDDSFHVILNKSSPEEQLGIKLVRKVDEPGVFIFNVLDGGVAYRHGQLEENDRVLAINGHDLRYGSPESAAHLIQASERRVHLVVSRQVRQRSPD

**Q.** Which pKd does the source give for B1 here?
**A.** below the threshold

**Q.** B2 was tested. Which pKd did it give?
**A.** below the threshold

The binders below were run against GOPC, Q9HD26 (assay: holdup assay). Settings: plain residues with an end cap or a label only (N-terminal biotin on a linker: ado-ado).
Set-up: key: below the threshold = too weak to quantify, mostly under pKd 3.1 to 4

**Q.** How did the pKd turn out when B1 was run?
**A.** below the threshold

**Q.** B2 was tested. Which pKd did it give?
**A.** below the threshold

These binders were tested against MAST1, Q9Y2H9 (assay: holdup assay). Settings: plain residues with an end cap or a label only (N-terminal biotin on a linker: ado-ado).
Set-up: key: below the threshold = too weak to quantify, mostly under pKd 3.1 to 4

MAST1, Q9Y2H9, sequence (Q9Y2H9 962-1065): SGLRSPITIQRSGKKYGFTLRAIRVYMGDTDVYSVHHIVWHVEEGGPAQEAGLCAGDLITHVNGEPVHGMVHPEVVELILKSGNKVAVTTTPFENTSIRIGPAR

**Q.** Which pKd does the source give for B1 here?
**A.** 3.71

**Q.** For B2, which pKd is on record?
**A.** below the threshold

These binders were tested against PARD3_3, Q8TEW0 (assay: holdup assay). Settings: plain residues with an end cap or a label only (N-terminal biotin on a linker: ado-ado).
Set-up: key: below the threshold = too weak to quantify, mostly under pKd 3.1 to 4

PARD3_3, Q8TEW0, sequence (Q8TEW0 582-685): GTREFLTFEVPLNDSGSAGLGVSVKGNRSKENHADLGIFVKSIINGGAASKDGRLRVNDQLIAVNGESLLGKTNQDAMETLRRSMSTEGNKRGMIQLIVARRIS

**Q.** B1 was tested. Which pKd did it give?
**A.** 5.29

**Q.** B2 was tested. Which pKd did it give?
**A.** below the threshold

These binders were tested against GORASP2, Q9H8Y8 (assay: holdup assay). Settings: plain residues with an end cap or a label only (N-terminal biotin on a linker: ado-ado).
Set-up: key: below the threshold = too weak to quantify, mostly under pKd 3.1 to 4

**Q.** How did the pKd turn out when B1 was run?
**A.** below the threshold

**Q.** B2 was tested. Which pKd did it give?
**A.** below the threshold

The binders below were run against T8, DVL3, Q92997 (assay: holdup assay). Settings: plain residues with an end cap or a label only (N-terminal biotin on a linker: ado-ado).
T8 sequence (Q92997 244-331, limits assumed, looked up): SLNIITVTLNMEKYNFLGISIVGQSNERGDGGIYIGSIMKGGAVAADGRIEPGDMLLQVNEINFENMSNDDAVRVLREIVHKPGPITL
Set-up: key: below the threshold = too weak to quantify, mostly under pKd 3.1 to 4

**Q.** Which pKd does the source give for B1 here?
**A.** below the threshold

**Q.** For B2, which pKd is on record?
**A.** below the threshold

These binders were tested against T9, MPDZ_12, O75970 (assay: holdup assay). Settings: plain residues with an end cap or a label only (N-terminal biotin on a linker: ado-ado).
T9 sequence (O75970 1857-1958, limits assumed, looked up): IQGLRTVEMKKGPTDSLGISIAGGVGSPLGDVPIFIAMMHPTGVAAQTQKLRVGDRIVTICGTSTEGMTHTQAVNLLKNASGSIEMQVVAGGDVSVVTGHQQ
Set-up: key: below the threshold = too weak to quantify, mostly under pKd 3.1 to 4

**Q.** How did the pKd turn out when B1 was run?
**A.** below the threshold

**Q.** How did the pKd turn out when B2 was run?
**A.** below the threshold

What follows are binders tested against T10, RHPN1, Q8TCX5 (assay: holdup assay). Settings: plain residues with an end cap or a label only (N-terminal biotin on a linker: ado-ado).
T10 sequence (Q8TCX5 508-602, limits assumed, looked up): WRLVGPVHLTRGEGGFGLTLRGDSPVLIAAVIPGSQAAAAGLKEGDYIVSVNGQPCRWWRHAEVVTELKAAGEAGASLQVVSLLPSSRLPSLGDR
Set-up: key: below the threshold = too weak to quantify, mostly under pKd 3.1 to 4

**Q.** For B1, which pKd is on record?
**A.** below the threshold

**Q.** How did the pKd turn out when B2 was run?
**A.** below the threshold
